Publication PMC11417767

Biological target: FAIM2 (Fas-apoptotic inhibitory molecule 2) (UniProt Q8K097)
Test: FAIM2 immunoprecipitation, αA-crystallin immunoblot
Details: reference: wild type; sites T148

Substance: αA-crystallin (HSPB4/CRYAA) (from UniProt P02489) T148A
- binding against the reference: weaker
